{
  "source": "paper PMC8060482",
  "about": "“Identification of an Invertase With High Specific Activity for Raffinose Hydrolysis and Its Application in Soymilk Treatment” (Frontiers in Microbiology, 2021)",
  "proteins": {"B1": {"name": "InvDz13 (Microbacterium trichothecenolyticum) (protein)", "chain": "APVAPAAPELQDGPQPTAHTQQAYAPEDDFTAKWTRADARQLKRLSDPTAGSKQNSMPTELTMPAVAQDFPDMSNEQVWVWDSWPLTDENANQYSVNGQEIIFSLVADRNLVFDERHVFAKIGYFYRPAGVPADERPENGGWTYGGLVFDEGVTGKIFPDQSYSHQTQWSGSARISKGGQIKLFFTDVAFYRNEDGSNRKPYDPRIALSVGKVHANKNGVKLTGFDKVTDLLQADGTYYQTGAQNEFFNFRDPFTFEDPAHPGETYMVFEGNSAMPRETATCNEEDLGYREGDPFAESVEQVNASGATYQIGNVGLAKAKNKDLTEWEFLPPLLSANCVTDQTERPQIYMKDGKYYLFTISHRGTFANGIDGPEGVYGFVGDGIRSDYQPMNSGSGLALGNPTNLNFAGGQPFAPDFNQPIGHFQAYSHYVMPGGLVQSFIDTVGTEGDFRRGGTLAPTVKIDIDGASSAVDYAYGDGGLGGYADIPANINVNPGGKVTPLP", "notes": "natively purified from culture supernatant of strain Dz13 (DEAE-Sepharose, Sephacryl S100); precursor 537 aa, predicted signal peptide 1-35 (secreted enzyme); kinetics of sucrose printed once as rInvDz13, but no recombinant expression described"}},
  "experiment_in_all_cases": "released glucose by glucose oxidase method; Michaelis-Menten fit",
  "assay_type_in_all_cases": "biochemical, Microbacterium trichothecenolyticum",
  "key": {"[1]": {"substrate": "OC[C@H]1O[C@H](OC[C@H]2O[C@H](OC[C@H]3O[C@H](O[C@]4(CO)O[C@H](CO)[C@@H](O)[C@@H]4O)[C@H](O)[C@@H](O)[C@@H]3O)[C@H](O)[C@@H](O)[C@H]2O)[C@H](O)[C@@H](O)[C@H]1O", "details": "50 mM citrate-phosphate pH 6.5, 35 °C, 5 min"}, "[2]": {"substrate": "OC[C@H]1O[C@@](CO)(O[C@H]2O[C@H](CO)[C@@H](O)[C@H](O)[C@H]2O)[C@@H](O)[C@@H]1O", "details": "50 mM citrate-phosphate pH 6.5, 35 °C, 5 min, enzyme printed as rInvDz13"}, "[3]": {"substrate": "OC[C@H]1O[C@H](OC[C@H]2O[C@H](O[C@]3(CO)O[C@H](CO)[C@@H](O)[C@@H]3O)[C@H](O)[C@@H](O)[C@@H]2O)[C@H](O)[C@@H](O)[C@H]1O", "details": "50 mM citrate-phosphate pH 6.5, 35 °C, 5 min"}},
  "data": [
    {"protein": "B1", "values": [
      {"measurement": "Km", "setting": "[1]", "value": "65.2 ± 3.07", "unit": "mM"},
      {"measurement": "kcat", "setting": "[1]", "value": "2368.3 ± 7.1", "unit": "s^–1"},
      {"measurement": "Km", "setting": "[2]", "value": "4.5 ± 0.2", "unit": "mM"},
      {"measurement": "kcat", "setting": "[2]", "value": "504 ± 0.1", "unit": "s^–1"},
      {"measurement": "Km", "setting": "[3]", "value": "14.2 ± 0.7", "unit": "mM"},
      {"measurement": "kcat", "setting": "[3]", "value": "3944 ± 15.3", "unit": "s^–1"}
    ]}
  ]
}
